The results in this text go back to patent US12030916 (AUCTUS BIOLOGICS, dated 2024).

This assay deals with T1, RPtag small tight peptide (Nd2,P5A,E18A) with a C-terminal GGC sequence (C-terminal Cys reacted with maleimide-activated plate (immobilised)).
T1 construct: also called RPtag small peptide; bait peptide
T1 peptide: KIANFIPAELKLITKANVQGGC
As to the kind of experiment: capture ELISA, peptide immobilised on maleimide plate. The procedure: White Pierce™ Maleimide Activated Plates were washed 4× with 200 μL 50 mM phosphate pH 7.4, 150 mM NaCl, and reacted with 100 μL of RPtag small peptide that binds with high affinity to RPtag large. Specifically, RPtag small tight peptide (Nd2,P5A,E18A; […]; SEQ ID NO:5) with a C-terminal GGC sequence ([…] (SEQ ID NO:5)+GGC) dissolved in 50 mM phosphate pH 7.4, 150 mM NaCl, 10 mM EDTA overnight at room temperature as bait. Plates were then washed 4× in 50 mM phosphate pH 7.4, 150 mM NaCl, and blocked for 1 hour at room temperature with 10 mM L-Cys in the same buffer, washed 4× as before, and blocked for 1 hour at room temperature with 50 mM phosphate pH 7.4, 150 mM NaCl, 1% BSA, 0.05% Tween20 (blocking buffer).
Plates were washed 4× as before, serum samples were diluted 1:100 in blocking buffer, and then serum was incubated with the baited plates for 2 hours at room temperature. […]
To test for intact N-termini, wells were then washed 4× as before, and incubated with a 1:10,000 dilution of HRP-conjugated mouse anti-FLAG antibody (M2 clone, 1 mg/mL stock) from Sigma-Aldrich for 1 hour at room temperature. Samples were then washed 4× as before, and assayed using SuperSignal™ ELISA Femto Substrate measured using a Molecular Devices SpectraMax i3 plate reader in luminescence mode. […]

B1: RPtag large-B12 construct (RPtag large with 3xFLAG tag, proline and Cys residue, B12-maleimide conjugated, 8xHis tag removed by TEV protease) (designed binder)
chain: KTIGLVISTLNNPFFVTLKNGAEEKAKELGYKIIVEDSQNDSSKELSNVEDLIQQKVDVLLINPVDSDAVVTAIKEANSKNIPVITIDRSANGGDVVSHIASDNVKGGEMAAEFIAKALKGKGNVVELEGIPGASAARDRGKGFDEAIAKYPDIKIVAKQAADFDRSKGLSVMENILQAQPKIDAVFAQNDEMALGAIKAIEAANRQGIIVVGFDGTEDALKAIKEGKMAATIAQQPALMGSLGVEMADKYLK
modifications: B12-maleimide covalently attached at the added Cys residue (47% labeling efficiency; the preparation is a mixture of free RPtag large and B12-RPtag large conjugate); position of the Cys not stated
notes: Construct expressed with N-terminal 8xHis tag and TEV site, both removed by TEV protease before use; In the assay it stood either in mouse serum after oral gavage or as a standard of known concentration; Formulated with 1 M D-ribose for dosing; also called B12-RPtag large conjugate; B12-RPtag conjugate; not shown: N-terminal leader left after TEV cleavage: 3xFLAG tag, a proline after it and a Cys …
Consider B1, for which the binding result is recorded as “binds”.
